Assay results taken from the RNAGym collection of RNA variant scans (doi:10.7554/elife.80360).

B1: HDV Ribozyme (parent)
chain: GGCCGGCAUGGUCCCAGCCUCCUCGCUGGCGCCGGCUGGGCAACAUUCCGAGGGGACCGUCCCCUCGGUAAUGGCGAAUGGGACCCA

Variants of: B1
Test: self-cleavage, relative activity (ratio to wild type); higher = more cleavage; co-transcriptional

Compared with GGCCGGCAUGGUCCCAGCCUCCUCGCUGGCACCGGCUGGACAACAUUCCGAGGGGACCGUCCCCUCGGUAAUGGCGAAUGGGACCCA [G31A G40A], GGCCGGCAUGGUCCCAGCCUCCUCGCUGGCACCGGCUGGUCAACAUUCCGAGGGGACCGUCCCCUCGGUAAUGGCGAAUGGGACCCA [G31A G40U] is lower in self-cleavage: 0.233 for the first, 0.112 for the second.

First: GGCCGGCAUGGUCCCAGCCUCCUCGCUGGCACCGGCUGGGCAACAUUCCGAGGGCACCGUCCCCUCGGUAAUGGCGAAUGGGACCCA [G31A G55C]
Second: GGCCGGCAUGGUCCCAGCCUCCUCGCUGGCACCGGCUGGGCAAUAUUCCGAGGGGACCGUCCCCUCGGUAAUGGCGAAUGGGACCCA [G31A C44U]
The self-cleavage of the first is higher: 0.475 for the first, 0.0898 for the second.

Going from GGCCGGCAUGGUCCCAGCCUCCUCGCUGGCCCCGGCUGGGCAACUUUCCGAGGGGACCGUCCCCUCGGUAAUGGCGAAUGGGACCCA [G31C A45U] to GGCCGGCAUGGUCCCAGCCUCCUCGCUGGCACCGGCUGGGCAACAUUCCGAAGGGACCGUCCCCUCGGUAAUGGCGAAUGGGACCCA [G31A G52A], the self-cleavage rises from 0.0437 to 0.46.

Going from GGCCGGCAUGGUCCCAGCCUCCUCGCUGGCACCGGCUGGGCAACAUUCCGAGGGGACCGUCCCCUCAGUAAUGGCGAAUGGGACCCA [G31A G67A] to GGCCGGCAUGGUCCCAGCCUCCUCGCUGGCACCGGCUGGGCAACAUUCCGAGGGGACCGUCCUCUCGGUAAUGGCGAAUGGGACCCA [G31A C63U], the self-cleavage rises from 0.44 to 0.606.

Going from GGCCGGCAUGGUCCCAGCCUCCUCGCUGGCACCGGCUGGGCAACAUUCCGAGGGGACCGUACCCUCGGUAAUGGCGAAUGGGACCCA [G31A C61A] to GGCCGGCAUGGUCCCAGCCUCCUCGCUGGCACCGGCUGGGCAACAUUCCGAGGGGACCGUCCCCUCGGUAAUGGCGAAUGGGAGCCA [G31A C84G], the self-cleavage falls from 0.554 to 0.119.

Compared with GGCCGGCAUGGUCCCAGCCUCCUCGCUGGCACCCGCUGGGCAACAUUCCGAGGGGACCGUCCCCUCGGUAAUGGCGAAUGGGACCCA [G31A G34C], GGCCGGCAUGGUCCCAGCCUCCUCGCUGGCACCAGCUGGGCAACAUUCCGAGGGGACCGUCCCCUCGGUAAUGGCGAAUGGGACCCA [G31A G34A] is higher in self-cleavage: 0.0272 for the first, 0.0934 for the second.

Going from GGCCGGCAUGGUCCCAGCCUCCUCGCUGGCCCCGGCUGGGCAACAUUCCGAGGGGACCGUCCCCUCGGUUAUGGCGAAUGGGACCCA [G31C A70U] to GGCCGGCAUGGUCCCAGCCUCCUCGCUGGCACCGGCUGGGCAACAUUCCGAGGGGACCGUCCCCUCGGUAAUGGCGAAUGGGACCAA [G31A C86A], the self-cleavage rises from 0.128 to 0.669.

Compared with GGCCGGCAUGGUCCCAGCCUCCUCGCUGGCACCGGCUGGGCAACAUUCCGAGGGGACCGUCCCCUCGGUAAUGGCGAAUGGGACCUA [G31A C86U], GGCCGGCAUGGUCCCAGCCUCCUCGCUGGCACCGGCUGGGCAACAUUCCGAGGGGACCAUCCCCUCGGUAAUGGCGAAUGGGACCCA [G31A G59A] is lower in self-cleavage: 0.69 for the first, 0.531 for the second.

First: GGCCGGCAUGGUCCCAGCCUCCUCGCUGGCACCGGCUGGGCAACAUUCCGAGGGGACCUUCCCCUCGGUAAUGGCGAAUGGGACCCA [G31A G59U]
Second: GGCCGGCAUGGUCCCAGCCUCCUCGCUGGCCCCGGCUGGGCAACAUUCCGAGGGGACCGUCCCCUCGGUAAUGGCGAAUGGGAUCCA [G31C C84U]
The self-cleavage of the first is higher: 0.383 for the first, 0.295 for the second.

Compared with GGCCGGCAUGGUCCCAGCCUCCUCGCUGGCACCGGCAGGGCAACAUUCCGAGGGGACCGUCCCCUCGGUAAUGGCGAAUGGGACCCA [G31A U37A], GGCCGGCAUGGUCCCAGCCUCCUCGCUGGCCCCGGCUGGGCAACAUUCCGAGGGGACCGUCCCCUCGGUAAUGGCGAGUGGGACCCA [G31C A78G] is higher in self-cleavage: 0.128 for the first, 0.302 for the second.

Compared with GGCCGGCAUGGUCCCAGCCUCCUCGCUGGCCCCGCCUGGGCAACAUUCCGAGGGGACCGUCCCCUCGGUAAUGGCGAAUGGGACCCA [G31C G35C], GGCCGGCAUGGUCCCAGCCUCCUCGCUGGCCCCGUCUGGGCAACAUUCCGAGGGGACCGUCCCCUCGGUAAUGGCGAAUGGGACCCA [G31C G35U] is higher in self-cleavage: 0.0978 for the first, 0.158 for the second.

Compared with GGCCGGCAUGGUCCCAGCCUCCUCGCUGGCCCCGGCUGGGCAACAUUCCGAGGGGACCGUCCCCUCGGUAAUGGCGAAUGGGACGCA [G31C C85G], GGCCGGCAUGGUCCCAGCCUCCUCGCUGGCCCCGGCUGGGCAACAUUCCGAGGGGACCGUCCCCUUGGUAAUGGCGAAUGGGACCCA [G31C C66U] is lower in self-cleavage: 0.341 for the first, 0.292 for the second.

First: GGCCGGCAUGGUCCCAGCCUCCUCGCUGGCCCCGGCUGGGCAACAUUCCGAGGGGACCGUCCCCUGGGUAAUGGCGAAUGGGACCCA [G31C C66G]
Second: GGCCGGCAUGGUCCCAGCCUCCUCGCUGGCCCCGGCUGGGCAUCAUUCCGAGGGGACCGUCCCCUCGGUAAUGGCGAAUGGGACCCA [G31C A43U]
The self-cleavage of the first is higher: 0.443 for the first, 0.135 for the second.

First: GGCCGGCAUGGUCCCAGCCUCCUCGCUGGCCCCGGCUGGGCACCAUUCCGAGGGGACCGUCCCCUCGGUAAUGGCGAAUGGGACCCA [G31C A43C]
Second: GGCCGGCAUGGUCCCAGCCUCCUCGCUGGCACCGGCUGGGCAACAUUCCGAGGGGACCGUCCCCUCGCUAAUGGCGAAUGGGACCCA [G31A G68C]
The self-cleavage of the first is lower: 0 for the first, 0.518 for the second.

Going from GGCCGGCAUGGUCCCAGCCUCCUCGCUGGCCCCGGUUGGGCAACAUUCCGAGGGGACCGUCCCCUCGGUAAUGGCGAAUGGGACCCA [G31C C36U] to GGCCGGCAUGGUCCCAGCCUCCUCGCUGGCCCCGGCUGGGCAAGAUUCCGAGGGGACCGUCCCCUCGGUAAUGGCGAAUGGGACCCA [G31C C44G], the self-cleavage rises from 0.0978 to 0.135.

Going from GGCCGGCAUGGUCCCAGCCUCCUCGCUGGCACCGGCUGGGCAACAUUCCGAGGGGACCGUCCCCUCGGUAAUGGCGAAAGGGACCCA [G31A U79A] to GGCCGGCAUGGUCCCAGCCUCCUCGCUGGCACCGGCUGGGCAACAUUCAGAGGGGACCGUCCCCUCGGUAAUGGCGAAUGGGACCCA [G31A C49A], the self-cleavage rises from 0.169 to 0.353.
